Here are results for five molecules from article PMC10279549 (Blood Advances, 2023).

Experiment in all cases: SPR
A general note: SPR reads the build-up and loss of mass on a sensor chip optically.

Experiment [1] has as its target Glu-Gly-Arg-chloromethylketone active site-blocked activated protein C (EGR-APC).
Experiment [2] concerns the target Full-length wild-type recombinant factor V (FV-WT) (human, UniProt P12259 29-2224).
Experiment [3] deals with Full-length recombinant factor V R506Q (FV Leiden) (human, UniProt P12259 29-2224, R506Q).
In experiment [4] the target is Full-length recombinant factor V W1920R (FV Nara) (human, UniProt P12259 29-2224, W1920R).

Broadly, the Kd is the free concentration of one partner at which half of the binding sites on the other are occupied at equilibrium, for simple one-to-one binding. What is called koff is the first-order rate constant of dissociation. The term kon denotes the second-order rate constant of association.

Chain of Full-length recombinant factor V R506Q (FV Leiden) (P12259 29-2224 R534Q): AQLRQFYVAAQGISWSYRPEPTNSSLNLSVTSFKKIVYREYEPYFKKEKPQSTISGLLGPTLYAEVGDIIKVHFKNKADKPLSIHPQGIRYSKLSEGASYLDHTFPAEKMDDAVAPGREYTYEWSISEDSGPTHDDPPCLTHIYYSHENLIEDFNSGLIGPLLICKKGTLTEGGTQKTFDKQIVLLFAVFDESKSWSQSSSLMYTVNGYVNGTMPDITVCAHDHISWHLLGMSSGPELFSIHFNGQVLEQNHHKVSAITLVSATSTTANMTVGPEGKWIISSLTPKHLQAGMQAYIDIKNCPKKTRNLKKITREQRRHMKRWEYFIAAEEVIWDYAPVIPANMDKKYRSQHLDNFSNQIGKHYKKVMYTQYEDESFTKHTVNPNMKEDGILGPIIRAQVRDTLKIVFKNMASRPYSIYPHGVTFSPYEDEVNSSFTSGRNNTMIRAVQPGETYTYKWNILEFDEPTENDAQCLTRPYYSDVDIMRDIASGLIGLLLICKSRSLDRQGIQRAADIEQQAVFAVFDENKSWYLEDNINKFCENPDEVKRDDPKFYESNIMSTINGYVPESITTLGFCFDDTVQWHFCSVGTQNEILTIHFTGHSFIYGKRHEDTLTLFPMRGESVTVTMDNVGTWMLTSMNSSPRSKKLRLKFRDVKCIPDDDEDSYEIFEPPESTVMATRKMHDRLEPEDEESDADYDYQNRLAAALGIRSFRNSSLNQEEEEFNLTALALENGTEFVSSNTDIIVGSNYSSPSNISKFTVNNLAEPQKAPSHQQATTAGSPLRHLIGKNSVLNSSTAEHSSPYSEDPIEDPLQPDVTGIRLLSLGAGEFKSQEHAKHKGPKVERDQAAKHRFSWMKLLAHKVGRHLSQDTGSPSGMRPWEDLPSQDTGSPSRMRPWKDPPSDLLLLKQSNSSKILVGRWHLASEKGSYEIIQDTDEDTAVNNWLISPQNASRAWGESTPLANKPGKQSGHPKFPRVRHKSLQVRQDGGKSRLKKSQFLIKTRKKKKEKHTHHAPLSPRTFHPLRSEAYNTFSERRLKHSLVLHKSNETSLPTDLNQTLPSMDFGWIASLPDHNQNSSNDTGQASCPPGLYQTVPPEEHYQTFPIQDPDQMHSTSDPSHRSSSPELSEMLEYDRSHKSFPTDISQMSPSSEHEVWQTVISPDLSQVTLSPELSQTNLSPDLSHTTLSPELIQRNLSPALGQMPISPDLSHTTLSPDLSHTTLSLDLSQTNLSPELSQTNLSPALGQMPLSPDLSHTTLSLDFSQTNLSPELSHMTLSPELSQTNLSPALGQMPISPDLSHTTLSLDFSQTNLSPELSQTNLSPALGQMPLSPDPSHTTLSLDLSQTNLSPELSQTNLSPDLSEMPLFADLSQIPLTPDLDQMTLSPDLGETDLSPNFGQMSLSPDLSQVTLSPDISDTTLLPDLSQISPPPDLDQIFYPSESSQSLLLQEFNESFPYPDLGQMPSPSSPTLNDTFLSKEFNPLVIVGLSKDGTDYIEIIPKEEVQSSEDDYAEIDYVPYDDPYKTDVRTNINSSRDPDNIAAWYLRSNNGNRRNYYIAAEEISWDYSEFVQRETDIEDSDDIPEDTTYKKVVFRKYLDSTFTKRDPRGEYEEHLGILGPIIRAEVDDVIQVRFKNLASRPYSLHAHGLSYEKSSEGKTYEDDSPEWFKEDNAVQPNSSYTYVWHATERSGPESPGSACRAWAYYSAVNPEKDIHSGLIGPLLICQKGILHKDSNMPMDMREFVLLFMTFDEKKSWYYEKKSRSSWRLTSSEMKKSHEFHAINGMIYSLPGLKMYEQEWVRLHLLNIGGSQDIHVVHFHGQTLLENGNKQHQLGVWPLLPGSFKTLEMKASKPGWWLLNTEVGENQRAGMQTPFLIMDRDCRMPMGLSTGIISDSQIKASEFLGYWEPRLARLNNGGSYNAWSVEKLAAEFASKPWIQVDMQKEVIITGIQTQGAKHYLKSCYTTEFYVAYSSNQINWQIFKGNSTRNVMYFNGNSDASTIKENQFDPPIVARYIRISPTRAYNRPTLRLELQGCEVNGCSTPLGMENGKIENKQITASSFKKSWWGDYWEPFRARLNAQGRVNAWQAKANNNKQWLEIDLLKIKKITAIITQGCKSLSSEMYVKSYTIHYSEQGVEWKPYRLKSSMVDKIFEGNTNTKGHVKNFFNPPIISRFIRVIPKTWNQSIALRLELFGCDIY
Chain of Full-length wild-type recombinant factor V (FV-WT) (P12259 29-2224): as the sequence (P12259 29-2224 R534Q) above, with Q506R counted along it
Chain of Full-length recombinant factor V W1920R (FV Nara) (P12259 29-2224 W1948R): as the sequence (P12259 29-2224 R534Q) above, with Q506R, W1920R counted along it

“Full-length wild-type recombinant factor V (FV-WT) (from UniProt P12259 29-2224) (natural protein)”: in experiment [1], the Kd worked out at 10.7 nM, the koff is 0.00359 s⁻¹ and the kon was determined as 337000 M⁻¹ s⁻¹.

In the case of “Full-length recombinant factor V R506Q (FV Leiden) (from UniProt P12259 29-2224) (natural protein)”, in experiment [1], the Kd came out at 19.1 nM, the koff worked out at 0.00457 s⁻¹ and the kon turned out to be 239000 M⁻¹ s⁻¹.

As for “Full-length recombinant factor V A2086D (FV Besançon) (from UniProt P12259 29-2224) (natural protein)”, in experiment [1], the Kd was 20.3 nM, the koff came out at 0.00268 s⁻¹ and the on-rate (kon) was determined as 132000 M⁻¹ s⁻¹.

For “Full-length recombinant factor V W1920R (FV Nara) (from UniProt P12259 29-2224) (natural protein)”, in experiment [1], the Kd turned out to be 12.8 nM, the dissociation rate constant (koff) was 0.00433 s⁻¹ and the kon stood at 338000 M⁻¹ s⁻¹.

B1: Protein S (natural protein, UniProt P07225 42-676, looked up)
chain: ANSLLEETKQGNLERECIEELCNKEEAREVFENDPETDYFYPKYLVCLRSFQTGLFTAARQSTNAYPDLRSCVNAIPDQCSPLPCNEDGYMSCKDGKASFTCTCKPGWQGEKCEFDINECKDPSNINGGCSQICDNTPGSYHCSCKNGFVMLSNKKDCKDVDECSLKPSICGTAVCKNIPGDFECECPEGYRYNLKSKSCEDIDECSENMCAQLCVNYPGGYTCYCDGKKGFKLAQDQKSCEVVSVCLPLNLDTKYELLYLAEQFAGVVLYLKFRLPEISRFSAEFDFRTYDSEGVILYAESIDHSAWLLIALRGGKIEVQLKNEHTSKITTGGDVINNGLWNMVSVEELEHSISIKIAKEAVMDINKPGPLFKPENGLLETKVYFAGFPRKVESELIKPINPRLDGCIRSWNLMKQGASGIKEIIQEKQNKHCLVTVEKGSYYPGSGIAQFHIDYNNVSSAEGWHVNVTLNIRPSTGTGVMLALVSGNNTVPFAVSLVDSTSEKSQDILLSVENTVIYRIQALSLCSDQQSHLEFRVNRNNLELSTPLKIETISHEDLQRQLAVLDKAMKAKVATYLGGLPDVPFSATPVNAFYNGCMEVNINGVQLDLDEAISKHNDIRAHSCPSVWKKTKNS
For the molecule B1, in experiment [2], the dissociation constant (Kd) stood at 7.56 nM, the koff was 0.00393 s⁻¹ and the kon worked out at 520000 M⁻¹ s⁻¹. Besides, in experiment [3], the Kd was determined as 5.26 nM, the koff is 0.00374 s⁻¹ and the kon was determined as 711000 M⁻¹ s⁻¹. Also, in experiment [4], the Kd came out at 26.2 nM, the koff amounted to 0.00382 s⁻¹ and the kon worked out at 145000 M⁻¹ s⁻¹.
